Data on 1 substance can be found in publication PMC6992001.

Where “and” joins values, the source holds several entries; their conditions need not be identical. Equal entries are not always repeated.

The target in the test is Pomacea canaliculata hemocyanin (PcH), native (Pomacea canaliculata). The experiment in a line: negative-stain transmission electron microscopy; native PcH 0.12 g/L in 20 mM Tris-HCl pH 7.4, 20 mM CaCl2, 20 mM MgCl2; 2% uranyl acetate, room temperature; self-association of subunits into decamers stacked to multi-decamers.

For the substance “Pomacea canaliculata hemocyanin (PcH), native (complex)”, the stoichiometry N (in general, the number of molecules, sites or subunits per partner or assembly) is 20 subunits and 30 subunits and 40 subunits.
